# Data from paper PMC11699195.
# Test: immunoblot, H460, A549, HCC827 cells
# Conditions: glycan gained; control: mock vector
substance,measurement,value
PD-L1: RPN1-HA overexpression,expression_or_secretion,increases
